# Data taken from the DeepSol protein solubility set.
# Experiment: soluble on expression in E. coli; label from the status in PepcDB or PDB records
row,Sequence,soluble on expression in E. coli
1,MTNDKMLARIAALLRQAEGTDNPHEADAFMSTAQRLATAASIDLAVARSHAGNRSPAQAPTQRTITIGAAGTRGLRTYVQLFVLIAAANDVRCDVASNSTFVYAYGFAEDIDTSHALYASLVVQMVRASDAYLASGAHRPTPTITARLNFQLAFGARVGQRLADAREQTRQEATKDRDRPPGTAIALRDKDIELHEYYRRSSKARGAWRASRATAGYSSAARRAGDRAGRQARLGNNPELPGARAALGR,soluble
2,VKSYKSGASAIDVIVTTPDIARINAIAAMKKGSALTTEETMQVPAAGWPVMIFSHGITSYKETVLAISGTLASQGIATISIDHPYHGARGIDFNADGVYEISATSSLSDSDPAYVNANVTSYMNLASLLTARDNVRQSEVDLLALRLSLNSVNLAGQLDATKVSFLGHSLGAITGIPVMALANSGI,not soluble
3,MFGRHSIIPNNQIGTASASAGEDHVSASATSGHIPYDDMEEIPHPDSIYGAASDLIPDGSQLVAHRSDGSELLVSRPPEGANQLTISFRGQVYVFDAVGADKVDAVLSLLGGSTELAPGPQVMELAQQQNHMPVVEYQSRCSLPQRAQSLDRFRKKRNARCFEKKVRYGVRQEVALRMARNKGQFTSSKMTDGAYNSGTDQDSAQDDAHPEISCTHCGISSKCTPMMRRGPSGPRTLCNACGLFWANRGTLRDLSKKTEENQLALMKPDDGGSVADAANNLNTEAASVEEHTSMVSLANGDNSNLLGDH,soluble
4,MDKQLNDAPCGFLALSEEGSIIAANRTLIKILDYEPEQVIGQHMNMMLTIPAQLFCQLYFFPLLKLEHHIEEIYISLKARDGEEIPVLINAIARHDSGASVFDCVL,not soluble
5,MEKSWYVVHTYSGYENKVKANLEKRVESMGMQDKIFRVVVPEEVEVEMKNGKEKLMKRKVFPGYVLVELIMTDDSWYVVRNTPGVTGFVGSSGSGSKPSPLLEEEVVTIMKHMGMDNEVVDFDFELHETVRVNEGPFADYTGAIEEIDVEKKKVSVLVDMFGRETPVELDFHQIEKL,soluble
6,MDRIVEIEKYSFDETYETSLRPSNFDGYIGQESIKKNLNVFIAAAKKRNECLDHILFSGPAGLGKTTLANIISYEMSANIKTTAAPMIEKSGDLAAILTNLSEGDILFIDEIHRLSPAIEEVLYPAMEDYRLDIIIGSGPAAQTIKIDLPKFTLIGATTRAGMLSNPLRDRFGMQFRLEFYKDSELALILQKAALKLNKTCEEKAALEIAKRSRSTPRIALRLLKRVRDFADVNDEEIITEKRANEALNSLGVNELGFDAMDLRYLELLTAAKQKPIGLASIAAALSEDENTIEDVIEPYLLANGYIERTAKGRIASAKSYSALKLNYEKTLFEE,not soluble
7,MIKRPHVMQDSIQDCGVACIEMICKFYNINIDRRYIQEETGYGMIGISLKAMEKFFSKVDANPEIVNISKINRLNKENREMINNSLPAIVFLEEEEIINHFVVIWHIGKKRILVSDPTHTKKEWINNKHFEKRAISYLFVEKPKNI,not soluble
8,MKRIAFVFSTAPHGTAAGREGLDALLATSALTDDLAVFFIADGVFQLLPGQKPDAVLARDYIATFKLLGLYDIEQCWVCAASLRERGLDPQTPFVVEATPLEADALRRELANYDVILRF,soluble
9,MPKQKASYEALLEEVVETLKHSPDGVNEIVESSAKYVDAANDLTKDELALISAYVKADLKEFSQSFEQSKSSPFYLMITNSIWQGLLDITDRTKVEWVELFADLEHQGLYQAGDMIGLGVLICDQCGHKTEFNHPTEIEPCSQCGGKAFSRQPLKP,not soluble
10,MSHHHHHHAGIFTFEEPVTHVSESIGIMEVKVLRTSGARGNVIVPYKTIEGTARGGGEDFEDTCGELEFQNDEIVKTISVKVIDDEEYEKNKTFFLEIGEPRLVEMSEKKGGFTITEEYDDKQPLTSKEEEERRIAEMGRPILGEHTKLEVIIEESYEFKSTVD,soluble
11,MSDLADNAIDAARQENVARILEAAERLFRHYGYAKTNVADIARELDMSPANIYRFFASKTEIHQTLCLRMLGASYQQALEIAHLPLSASERLRRYALGQHKLTVETMLDEQKVHEMVVVAIERDWHVIEKHISRLDDLLAGIIREGIEAGEFADVDPAVAARCFGASLVTLCHPQIVAQCLAKENRATPDELVEFAIRALKK,soluble
12,MGSDKIHHHHHHMKPLADRIRPENFNEVFGQKHIIGEGKILDRILKSSLVPNMIFYGPPGTGKTTVANIIAKKTNKAFYKLNATTASVKDVREITDSTNTLMGRNGVLLYLDEIQNFNKKQQQSLLEFMENGSITLIASTTENPYFYVYNAILSRSTIFEFKPLESDELMKAVNRAVELIKDELKTTEIIITEDAKKYAVGVSSGDVRKTLNSIEIAVYSTKPNEEGNIFIDLETMKECTQKNVLNFDKDGDNHYDILSAFQKSIRGSDADAAVLYLAMLIKGGDLKSICRRLLVIAAEDIGLAYPQAISIVKACTDSALELGFPEARIPLAEAVILLATSPKSNSAITAVDSALRDLDTINVGSIPDYLRDGHYEGAKKLGRMQDYKYPHSYENNYVKQKYLPSNLENRRYYEYGKNKIEEKCREYWERIKY,not soluble
13,IIGGQKAKMGNFPWQVFTNIHGRGGGALLGDRWILTAAHTLYPKEHEAQSNASLDVFLGHTNVEELMKLGNHPIRRVSVHPDYRQDESYNFEGDIALLELENSVTLGPNLLPICLPDNDTFYDLGLMGYVSGFGVMEEKIAHDLRFVRLPVANPQACENWLRGKNRMDVFSQNMFCAGHPSLKQDACQGDSGGVFAVRDPNTDRWVATGIVSWGIGCSRGYGFYTKVLNYVDWIKKEMEEED,soluble
14,MNEVKLSKRLEEVVREIPVGSTVADIGSDHAYLPCYTIINNIATKAVAGEVVDGPFRSAQATVAESGLQDKVDVRKGNGLAVIAPGEVDVITVAGMGGALIRDILESGKEKLEGVTRLILQPNIAAHHIREWFIENGWELIHEKIVKEDGKIYEILVGERGNVAAPYSENKQAELFMGPFLITEKSEAFVEKWEGELKNFQNILKQLERAADSEETKAKRGEVEAKMKMIGEVLS,not soluble
15,MLPKPGTYYLPWEVSAGQVPDGSTLRTFGRLCLYDMIQSRVTLMAQHGSDQHQVLVCTKLVEPFHAQVGSLYIVLGELQHQQDRGSVVKARVLTCV,not soluble
16,SLTTTEVVMENVTAFWEEGFGELFEKAKQNNNNRKTSNGDDSLFFSNFSLLGTPVLKDINFKIERGQLLAVAGSTGAGKTSLLMMIMGELEPSEGKIKHSGRISFCSQFSWIMPGTIKENIIFGVSYDEYRYRSVIKACQLEEDISKFAEKDNIVLGEGGITLSGGQRARISLARAVYKDADLYLLDSPFGYLDVLTEKEIFESCVCKLMANKTRILVTSKMEHLKKADKILILHEGSSYFYGTFLELYHYPADRFVAGFIGSPKMNFLPVKVTATAIDQVQVELPMPNRQQVWLPVESRDVQVGANMSLGIRPEHLLPSDIADVILEGEVQVVEQLGNETQIHIQIPSIRQNLVYRQNDVVLVEEGATFAIGLPPEDCHLFREDGTACRRLHKEPGV,soluble
17,MGHHHHHHSHMHISGVFATKDAVAVWNGRQVAIFELSGAAIRSAGTFLCETPVLAMHEENVYTVESNRVQVRTWQGTVKQLLLFSETEGNPCFLDICGNFLVVGTDLAHFKSFDLSRREAKAHCSCRSLAELVPGVGGIASLRCSSSGSTISILPSKADNSPDSKICFYDVEMDTVTVFDFKTGQAWCLALVEVGPKGPSARDASAETRVWETPHALHLPAPPSWRGPGSVGKGSCER,not soluble
18,MKEESEESSMDHHSYTTEEVAKRLKVSKLTVYDLIKKGELPSYRVGRQMRIDAADLDQYIKQMKTGKVQVNPVKNDGSSILNTCIISGQELTLDMLAKRIENRLPSSNVLRAYQGSLTSLVKMYQGEGSIVSLHLFDGETGTYNIPYVKRILVGQPCLMINLLSRNVGFYVQKGNPKKIKTWADISGSTIKFVNREKGSGIRVLVDEQLRILKLNKADISGYEWEESNHLGVATQVANGKADVGVGSEKFSQIVNVDFIPIMKEQYDLVILKNKENEELIEVVKDILQSEEFHNELNAIGGYDITKTGQIVYEIK,not soluble
19,MTKPVLQDGETVVCQGTHAAIASELQAIAPEVAQSLAEFFAVLADPNRLRLLSLLARSELCVGDLAQAIGVSESAVSHQLRSLRNLRLVSYRKQGRHVYYQLQDHHIVALYQNALDHLQECR,soluble
20,MGSDKIHHHHHHMAKVVISGYYGFDNLGDEAVLFSILKTLRELQIGIRIEVLSNNPSQTAEIYRVTAANRWKLGEVYHALKDSDMLISGGGSLLQDVTGWKSLVYYLGVIWLARFLGKPVFFYAQGIGPVNTPLGRLLMRWIVNKVNYITVRDESSRQDLAEMKISRPPVEVTADPVLGLEEKYVDKKIGQAILQEVGLDLSIERKMVGISVREWQGLGEYKEVVAELCDKLCRVGYQVVFLPMHSPDDLETSREVAAMMEQPAVVLEGHYSVVEMASLIANMDLLIGMRLHALILAAVMHVPPVAISYDPKIDRFMGLLGKTAATPVDRPQFAELWQAVEEIIYEPWQVREELMQQVEPLRQRAQASAVLGLKVLEKSLHNGPAAKYL,not soluble
21,MGSDKIHHHHHHMNADDAYKPIQRATLSEASWRILRIAQSVELRHPVSHETALAIWGVELPADSDCSVVSLRSSQGGYAGTDVDYGWSGESPAFGHSEHSIRLGQDFPDSDFQYFPDSQAVSRNQIPGLRQSASQPSQFPQSPAKLHTVAQSPARRGRVKKSTSVSADVTVHVWKGLSARHVREVAGVPVLMPVPAWSLAAGRWGIQDIVMVAESLIRHRFATRKGLIEFVKTESVPYRSKCLDALALVQSGSDSPKETEMRLTLVCYGLPIMQPNCVVPGVNFANGAAVTLDLVDAEHRFGLDYQGDHHRTDRAQYRRDQNKLSRLAAAGWTVFSVTQLDLSDELHRAAFAMNVAHALSSIVGRPIGVTTPLPWRKVVLRYRKARKLRLLD,not soluble
22,MSLIIKKLKQSHSVKILCEVFNVHRSSYHYWLKRPALINAETIKLRSLISEAHAASNGSAGARTIADIVTNQGVKLSRYRATKLMRTLGLVSCQEPKHRYRKASQEHIDVPNHLSRQFAVTAPNEVWAGDVTYIWTGNRWMYLAVVIDLFARKVIGWSMSLSPDSRLTGKALSMAYESRGKPKGVMFHSDQGSHYTSRKYRQLLWRFQIKQSLSRRGNCWDNAPIERFFRSLKTEWVPTVGYRSFAEAQQEITRYIIGYYCQLRPHQYNGGLTPNESERLYWENSKTVANFSEGHHHHHH,not soluble
23,MLHLIVLLVALSSAVTAGRPRRALDGLDGSGFGFDKRALNSLDGAGFGFEKRALNSLDGQGFGFEKRALDGLDGAGFGFDKRALNSLDGAGFGFEKRALDGLDGSGFGFDKRALNSLDGAGFGFEKRALNSLDGAGFGFEKRALDGLDGAGFGFDKRALNSLDGAGFGFEKRALDGLDGAGFGFDKRALNSLDGNGFGFDKRTFKHSSNKLRSVFRNLKGFKQH,not soluble
24,MGSDKIHHHHHHMDRSERLIQLISEEGIDAFLIMNIENSARASSVYFSGFTGSFSIILISENTRLLITDSRYTVQAKQETDFEVREVKGGDFIDVLKKTVNDLKIKTIALEEERVSLSLFRRISSAFGDRKFIGIDDEVKQMRMVKDEGEIEKIKQAIEISERAFLETVQQIRAGMTEKEIAALLEYTMRKEGAEGVAFDTIVASGCRSALPHGKASDKVVERGDVIVIDFGATYENYCADITRVVSIGEPSDEVKEVHSIVLEAQERALKIAKAGVTGKLLDSVAREFIREKGYGEFFGHSLGHGIGLEVHEGPAISFRNDSPLPENVVFTVEPGIYLEGKFGIRIEEDVVLKEQGCEILTTLPRSIFVV,not soluble
